Results reported in paper PMC3268394 (The Journal of Biological Chemistry, 2011).
Blank lines part the entries; values can stand above or below the binder they belong to.

What was measured:
[1] = target: T1, HDAC6 ZnF-UBP domain (1109–1215), His tag cleaved (UniProt Q9UBN7 1109-1215); test: crystal structure
T1 sequence: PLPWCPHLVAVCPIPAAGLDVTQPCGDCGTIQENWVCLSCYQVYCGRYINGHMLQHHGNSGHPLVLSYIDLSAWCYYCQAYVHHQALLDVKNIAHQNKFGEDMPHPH

ubiquitin = ubiquitin (UniProt P0CG48 1-76); test: pull-down

- binding result [1]: binds
B1: ubiquitin C-terminal pentapeptide RLRGG (peptide)
peptide: RLRGG

- binding result (ubiquitin): binds
B2: His-tagged UBP domain of USP5 (171–290) (domain or fragment)
chain: GEVRQVSKHAFSLKQLDNPARIPPCGWKCSKCDMRENLWLNLTDGSILCGRRYFDGSGGNNHAVEHYRETGYPLAVKLGTITPDGADVYSYDEDDMVLDPSLAEHLSHFGIDMLKMQKTD
